Measurements as given in US7244836 (Genentech, dated 2007).

B1: GAL4 DNA-binding domain fused to the intracellular domain of human TNF-R2 (other, yeast;human, UniProt P04386 1-147, looked up)
chain: MKLLSSIEQACDICRLKKLKCSKEKPKCAKCLKNNWECRYSPKTKRSPLTRAHLTEVESRLERLEQLFLLIFPREDLDMILKMDSLQDIKALLTGLFVQDNVNKDAVTDRLASVETDMPLTLRQHRISATSSSEESSNKGQRQLTVSKKKPLCLQREAKVPHLPADKARGTQGPEQQHLLITAPSSSSSSLESSASALDRRAPTRNQPQAPGVEASGAGEARASTGSSDSSPGGHGTQVNVTCIVNVCSSSDHSSQCSSQASSTMGDTDSSPSESPKDEQVPFSKEECAFRSQLETPETLLGSTEEKPLPLGVPDAGMKPS
notes: also called GAL4(DB)-hTNF-R2icd; pPC97-hTNF-R2icd
B2: GAL4 DNA-binding domain fused to the intracellular domain of the murine TNF-R2 (other, yeast;murine, UniProt P04386 1-147, looked up)
chain: MKLLSSIEQACDICRLKKLKCSKEKPKCAKCLKNNWECRYSPKTKRSPLTRAHLTEVESRLERLEQLFLLIFPREDLDMILKMDSLQDIKALLTGLFVQDNVNKDAVTDRLASVETDMPLTLRQHRISATSSSEESSNKGQRQLTVSKKKPSCLQRDAKVPHVPDEKSQDAVGLEQQHLLTTAPSSSSSSLESSASAGDRRAPPGGHPQARVMAEAQGFQEARASSRISDSSHGSHGTHVNVTCIVNVCSSSDHSSQCSSQASATVGDPDAKPSASPKDEQVPFSQEECPSQSPCETTETLQSHEKPLPLGVPDMGMKPSQAGWFDQIAVKVA
notes: also called GAL4(DB)-mTNF-R2icd; pPC97-mTNF-R2icd
B3: human type 2 TNF receptor, wild type full length (receptor, UniProt P20333 23-461, looked up)
chain: LPAQVAFTPYAPEPGSTCRLREYYDQTAQMCCSKCSPGQHAKVFCTKTSDTVCDSCEDSTYTQLWNWVPECLSCGSRCSSDQVETQACTREQNRICTCRPGWYCALSKQEGCRLCAPLRKCRPGFGVARPGTETSDVVCKPCAPGTFSNTTSSTDICRPHQICNVVAIPGNASMDAVCTSTSPTRSMAPGAVHLPQPVSTRSQHTQPTPEPSTAPSTSFLLPMGPSPPAEGSTGDFALPVGLIVGVTALGLLIIGVVNCVIMTQVKKKPLCLQREAKVPHLPADKARGTQGPEQQHLLITAPSSSSSSLESSASALDRRAPTRNQPQAPGVEASGAGEARASTGSSDSSPGGHGTQVNVTCIVNVCSSSDHSSQCSSQASSTMGDTDSSPSESPKDEQVPFSKEECAFRSQLETPETLLGSTEEKPLPLGVPDAGMKPS
notes: whole, on cells; Whole receptor made by transfected cells, assayed after detergent lysis, not on intact cells; also called hTNF-R2; 75-80 kd hTNF-R2
B4: GST-hTNF-R2icd fusion protein (other, human, UniProt P20333 288-461, looked up)
chain: KKKPLCLQREAKVPHLPADKARGTQGPEQQHLLITAPSSSSSSLESSASALDRRAPTRNQPQAPGVEASGAGEARASTGSSDSSPGGHGTQVNVTCIVNVCSSSDHSSQCSSQASSTMGDTDSSPSESPKDEQVPFSKEECAFRSQLETPETLLGSTEEKPLPLGVPDAGMKPS
notes: domain: intracellular domain; Expressed in E. coli; also called pGST-hTNF-R2icd; wild type (wt) GST-hTNF-R2icd; not shown: glutathione S-transferase as encoded by vector pGEX-2TK (Pharmacia), with the vector's linker up to the BamHI site

How the values were obtained:
[1] = biological target: T1, GAL4(TA)-TRAF1 co-expressed with directly expressed TRAF2 (yeast; murine, UniProt P39428 2-409; P39429 1-501, limits assumed); test: yeast three-component assay with TRAF2 (no NLS) expressed directly; growth on trp- leu- his- medium with 20 mM 3-aminotriazole
T1 construct: also called GAL4(TA)-TRAF1 + TRAF2; pPC86TRAF1 with pPCTRAF2
T1 sequence 1: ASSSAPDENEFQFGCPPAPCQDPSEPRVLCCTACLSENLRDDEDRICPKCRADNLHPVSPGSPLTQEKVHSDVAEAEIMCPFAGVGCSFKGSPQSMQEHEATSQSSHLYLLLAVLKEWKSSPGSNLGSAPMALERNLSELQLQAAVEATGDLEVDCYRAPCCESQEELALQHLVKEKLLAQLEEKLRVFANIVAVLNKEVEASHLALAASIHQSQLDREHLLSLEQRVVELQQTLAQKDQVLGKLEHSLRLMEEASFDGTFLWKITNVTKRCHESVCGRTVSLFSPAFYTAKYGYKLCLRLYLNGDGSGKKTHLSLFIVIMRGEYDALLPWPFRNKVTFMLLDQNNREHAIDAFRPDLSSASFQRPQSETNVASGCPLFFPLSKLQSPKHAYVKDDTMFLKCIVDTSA
T1 sequence 2: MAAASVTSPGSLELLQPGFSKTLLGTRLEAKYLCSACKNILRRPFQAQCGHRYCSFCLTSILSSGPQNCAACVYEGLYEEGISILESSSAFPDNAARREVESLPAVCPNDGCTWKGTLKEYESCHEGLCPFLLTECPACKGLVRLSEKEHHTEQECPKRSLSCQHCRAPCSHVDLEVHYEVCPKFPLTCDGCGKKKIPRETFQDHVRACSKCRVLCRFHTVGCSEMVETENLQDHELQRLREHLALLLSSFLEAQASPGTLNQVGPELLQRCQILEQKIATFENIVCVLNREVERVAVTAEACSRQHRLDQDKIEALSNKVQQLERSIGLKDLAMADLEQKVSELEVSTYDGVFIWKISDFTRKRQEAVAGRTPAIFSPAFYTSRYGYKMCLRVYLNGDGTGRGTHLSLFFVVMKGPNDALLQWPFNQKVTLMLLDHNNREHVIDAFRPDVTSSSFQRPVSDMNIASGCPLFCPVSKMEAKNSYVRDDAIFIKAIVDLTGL
Experimental: HF7c cells were sequentially transformed with plasmids (see text) encoding the indicated GAL4 DNA-binding domain (DB) fusion proteins, the GAL4 transcriptional activation domain (TA) TRAF1 fusion protein, and TRAF2 or TRAF2 fused to the simian virus 40 large tumor antigen nuclear localization signal (NLS). The final transformation mixtures were plated onto synthetic dextrose plates lacking trp, leu, his and containing 20 mM 3-aminotriazole. Plus signs indicate growth of transformed yeast colonies on the respective plates. *See Table 2.

[2] = biological target: T2, GST-TRAF2 fusion protein (murine, UniProt P39429 1-501); test: GST-TRAF2 beads incubated with 293/TNF-R2 cell lysate; SDS-PAGE and Western blot with anti-hTNF-R2 antibody
T2 construct: Expressed in E. coli in the presence of 1 mM ZnCl2; also called GST-TRAF2 fusion protein beads; not shown: glutathione S-transferase as encoded by vector pGEX-2TK, with the vector's linker
T2 sequence: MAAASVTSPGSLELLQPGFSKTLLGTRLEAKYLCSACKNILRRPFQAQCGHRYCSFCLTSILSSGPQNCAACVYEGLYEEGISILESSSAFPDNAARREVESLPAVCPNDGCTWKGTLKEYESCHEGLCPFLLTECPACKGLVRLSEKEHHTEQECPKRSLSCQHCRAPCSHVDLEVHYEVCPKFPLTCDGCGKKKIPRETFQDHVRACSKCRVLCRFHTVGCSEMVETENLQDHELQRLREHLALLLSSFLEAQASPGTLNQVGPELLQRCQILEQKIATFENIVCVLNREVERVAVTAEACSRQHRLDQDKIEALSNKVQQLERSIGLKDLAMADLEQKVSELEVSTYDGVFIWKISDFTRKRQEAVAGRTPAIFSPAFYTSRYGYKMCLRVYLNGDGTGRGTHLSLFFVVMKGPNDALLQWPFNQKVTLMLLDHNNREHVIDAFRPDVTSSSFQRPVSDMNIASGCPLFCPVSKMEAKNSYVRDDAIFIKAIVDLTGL
Experimental: FIG. 16. […] Reactions were analyzed by SDS-PAGE and Western blot analysis using anti-human TNF-R1 monoclonal antibody 986 (0.5 μg/ml) and anti-human TNF-R2 monoclonal antibody 1036 (0.5 μg/ml). An arrow indicates the 75-80 kd hTNF-R2 band that is coprecipitated specifically with the GST-TRAF2 fusion protein. Molecular weight markers are indicated on the right in kd.
An expression vector encoding a GST-TRAF2 fusion protein was constructed. The TRAF2 coding region was amplified from pPC86TRAF2 by PCR with Pfu DNA polymerase as described above using the oligonucleotide primers 5'-[…] TTGT-3' (SEQ. ID. NO: 53) and 5'-[…]-3' (SEQ. ID. NO: 54). The amplified 1.6 kb DNA fragment was blunt-ended using *E. coli* DNA polymerase I, digested with BamHI and cloned into BamHI/SmaI-digested pGEX-2TK vector. The GST-TRAF2 fusion protein was expressed in the presence of 1 mM ZnCL_2 and purified as described above. […] Primary antibodies directed against the extracellular domains of hTNF-R2 and hTNF-R1 (as a control) were used at a concentration of 0.5 µg/ml and the secondary sheep anti-mouse horseradish peroxidase conjugate (Amersham) at a dilution of 1:6000.

[3] = biological target: T3, TNF Receptor Associated Factor 1, purified from CT6 cells (murine, UniProt P39428 1-409, N-terminally blocked (so in the source); nature of the block not stated)); test: band eluted specifically from the GST-hTNF-R2icd affinity column and identified by peptide sequencing; association may be indirect (through TRAF2)
T3 construct: also called TRAF1; protein band at 45-50 kd
T3 sequence: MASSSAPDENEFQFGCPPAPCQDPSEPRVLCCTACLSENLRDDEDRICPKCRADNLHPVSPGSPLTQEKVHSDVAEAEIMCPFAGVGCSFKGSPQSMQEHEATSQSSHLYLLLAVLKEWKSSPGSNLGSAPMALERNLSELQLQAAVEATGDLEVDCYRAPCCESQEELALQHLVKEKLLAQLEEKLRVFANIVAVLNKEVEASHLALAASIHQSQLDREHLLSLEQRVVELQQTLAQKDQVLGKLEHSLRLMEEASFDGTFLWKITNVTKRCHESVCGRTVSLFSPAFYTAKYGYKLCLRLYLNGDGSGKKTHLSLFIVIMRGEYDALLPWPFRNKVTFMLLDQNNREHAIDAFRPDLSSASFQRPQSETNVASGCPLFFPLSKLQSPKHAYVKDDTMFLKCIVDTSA
Experimental: For large scale purification of hTNF-R2icd associated factors 60 l of CT6 cells (3×10^10 cells) were harvested and washed twice with cold PBS. All subsequent operations were carried out at 4° C. The cells were lysed by adding 120 ml of 0.1% NP40 lysis buffer containing 100 mM NaCl and rocked gently for 30 min. Insoluble material was removed by centrifugation for 10 min at 10,000×g. The supernatant was then centrifuged at 100,000×g for 1 hr and dialyzed against lysis buffer containing 500 mM NaCl. All subsequent purification steps were carried out in lysis buffer containing 500 mM NaCl. The cell lysate was passed through a 15 ml glutathione-agarose GST-hTNF-R2icd(-37) fusion protein preabsorption column. The flow-through was applied to a 0.3 ml Affigel10/15 GST-hTNF-R2icd fusion protein affinity column. For control, the lysate was run through a similar Affigel10/15 GST-hTNF-R2icd(-37) fusion protein affinity column in parallel. After extensive washing, proteins bound to the resins were eluted with five column volumes of ImmunoPure Gentle Ag1Ab Elution Buffer (Pierce) containing, 0.1 M DTT, precipitated with Methanol/Chloroform and resuspended in SDS sample buffer containing 5% SDS. One tenth of the material was separated by SDS-PAGE under reducing conditions and visualized by silver staining (FIG. 9).

Binder | binding result [1] | further results
B1 | binds | –
B2 | binds | –
B3 | – | binding result [2]: binds
B4 | – | binding result [3]: binds
